The text below walks through data of publication PMC3103405.

One data set addresses T1, AtfA::6His (Aspergillus fumigatus AkuB, UniProt Q4WY05 1-555).
T1 sequence: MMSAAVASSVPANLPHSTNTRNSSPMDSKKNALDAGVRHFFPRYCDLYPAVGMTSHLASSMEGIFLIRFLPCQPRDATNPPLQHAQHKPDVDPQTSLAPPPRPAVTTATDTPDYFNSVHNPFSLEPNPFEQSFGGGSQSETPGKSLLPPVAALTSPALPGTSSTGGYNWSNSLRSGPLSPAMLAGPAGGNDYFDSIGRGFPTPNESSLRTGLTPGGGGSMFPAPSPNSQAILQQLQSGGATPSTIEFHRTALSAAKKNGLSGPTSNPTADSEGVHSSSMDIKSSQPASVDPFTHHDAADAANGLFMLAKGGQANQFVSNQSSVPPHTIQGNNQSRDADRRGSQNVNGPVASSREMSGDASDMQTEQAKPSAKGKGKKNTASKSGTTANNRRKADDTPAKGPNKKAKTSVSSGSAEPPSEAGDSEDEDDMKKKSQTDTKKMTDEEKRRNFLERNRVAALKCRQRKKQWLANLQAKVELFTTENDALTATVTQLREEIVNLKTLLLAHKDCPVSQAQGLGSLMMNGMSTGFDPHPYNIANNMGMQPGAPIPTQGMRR
Nature of the data set: EMSA. (A gel shift assay detects complexes by their altered migration in electrophoresis.)

Another data set addresses GST::PacC (30-195*) (Aspergillus nidulans? (plasmid …, UniProt Q00202 30-195)). The data set is described as follows: EMSA.

GST::PacC (30-195*) (Aspergillus nidulans?, sequence (Q00202 30-195): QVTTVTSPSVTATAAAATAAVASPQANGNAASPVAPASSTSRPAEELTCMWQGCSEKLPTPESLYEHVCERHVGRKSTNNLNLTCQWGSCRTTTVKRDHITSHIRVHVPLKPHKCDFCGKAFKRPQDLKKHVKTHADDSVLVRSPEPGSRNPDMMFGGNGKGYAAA

B1: A-23 probe (DprA promoter) (dsDNA)
DNA 1: GGGCAGTTCAAATACAGAACGTCACAAATCTTACACA
DNA 2: GGGTGTGTAAGATTTGTGACGTTCTGTATTTGAACTG
As for B1, the binding result in the data set with AtfA::6His is “binds”.

B2: PacC probe (DprB promoter, -264) (dsDNA)
DNA 1: GGGTCGATCCAGGTACCGCCAGGGGTTGATATGACAG
DNA 2: GGGCTGTCATATCAACCCCTGGCGGTACCTGGATCGA
Turning to B2, the binding result in the data set with GST::PacC (30-195*) is “binds”.

B3: A-142 probe (DprA promoter) (dsDNA)
DNA 1: GGGCTCCCCGGCTTCTTGACGTAACCCCCAGACATGA
DNA 2: GGGTCATGTCTGGGGGTTACGTCAAGAAGCCGGGGAG
For the molecule B3, the binding result with AtfA::6His is given as “binds”.
